According to paper PMC4532613 (Molecular and biochemical parasitology, 2015):

Target: the molecule itself
Test: SEC

B1: Ca^2+-binding mutant FCaBP^E151Q/E188Q, recombinant (natural protein)
chain: MGACGSKGSTSDKGLASDKDGKKAKDRKEAWERIRQAIPREKTAEAKQRRIELFKKFDKNETGKLCYDEVHSGCLEVLKLDEFTPRVRDITKRAFDKARALGSKLENKGSEDFVEFLEFRLMLCYIYDFFELTVMFDEIDASGNMLVDEEQLKRAVPKLEAWGAKVEDPAALFKELDKNGTGSVTFDQFAAWASAVKLDADGDPDNVPESA
With B1 the “stoichiometry N” value was 2.
